Laboratory results published in publication PMC3029278.

Molecular target: CEACAM1-4L-HA (HA-tagged human CEACAM1) (human) (UniProt P13688)
Sequence of UniProt P13688 (P13688 35-526): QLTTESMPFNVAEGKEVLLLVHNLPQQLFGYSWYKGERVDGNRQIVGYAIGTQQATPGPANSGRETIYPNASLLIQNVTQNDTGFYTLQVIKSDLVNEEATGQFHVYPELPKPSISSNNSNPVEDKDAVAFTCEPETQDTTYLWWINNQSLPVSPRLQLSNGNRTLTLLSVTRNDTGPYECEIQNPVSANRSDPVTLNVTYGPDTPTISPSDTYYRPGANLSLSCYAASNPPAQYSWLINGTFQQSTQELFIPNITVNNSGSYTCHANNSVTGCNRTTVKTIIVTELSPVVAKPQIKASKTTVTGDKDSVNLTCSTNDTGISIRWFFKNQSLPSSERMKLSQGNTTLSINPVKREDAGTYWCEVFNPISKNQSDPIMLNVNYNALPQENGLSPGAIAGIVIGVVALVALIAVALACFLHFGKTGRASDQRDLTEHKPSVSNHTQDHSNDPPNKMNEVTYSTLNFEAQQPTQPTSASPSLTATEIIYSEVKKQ

“Opa52 protein of Neisseria gonorrhoeae strain MS11 (natural protein)” gave an internalised OpaCEA-positive gonococci in CEACAM1-transfected 293 cells (gentamicin protection assay, 2 h) of 210000 cfu/ml.
